Where two headings read alike, the source gives them in different places.
Columns and labels:
[1] = target: T1, HA of A/California/04/2009 (H1N1) (influenza A virus (H1N1), UniProt P26140 18-529); experiment: ELISA (highest dilution tested 1/50,000)
[2] = target: HA of A/duck/Czechoslovakia/1956 (H4); experiment: ELISA, recombinant HA
[3] = target: HA of A/duck/Czechoslovakia/1956 (H4); experiment: ELISA, recombinant HA; remark: listed apart in the source
[4] = target: T1, HA of A/California/04/2009 (H1N1); experiment: ELISA, recombinant HA
[5] = target: T1, HA of A/California/04/2009 (H1N1); experiment: ELISA, recombinant HA; remark: listed apart in the source
[6] = target: HA of A/Singapore/1/1957 (H2) (influenza A virus (H2), UniProt Q67333 16-525)
[7] = target: HA of A/Hong Kong/1/1968 (H3N2) (influenza A virus (H3N2), UniProt Q91MA7 17-530)
[8] = target: T1, HA of A/California/04/2009 (H1N1); experiment: BLI, Fab on immobilized biotinylated HA
[9] = target: T1, HA of A/California/04/2009 (H1N1); experiment: BLI, Fab on immobilized biotinylated HA; remark: listed apart in the source

B1: H5.31 (antibody, V domains shown)
VH: EVQLVQSGGGLVQPGGSLRLSCEASRFTSSSYWITWVRQAPGKGLEWVANIKQDGSEKYFVDSVKGRFTISRDNASNSLYLQMSSLRAEDTAVYYCARGFLERLLLGRQGAYYYGMDVWGQGTTVTVSS
VL: DIQMTQSPSSLSASVGDRVTMTCRASQSISSSLNWYQQKPGKAPKLLIYAASNLQSGVPSRFSGSGSGTDFTLTISSLQPEDFATYYCQQSYTMPPELTFGGGTKVQIK
EC50 [1]: 0.045 µg/mL

B2: FluA-20 (hybridoma-produced IgG) (antibody, V domains shown)
VH: QVQLQESGPGLVKPSETLSLTCSVSGVSVTSDIYYWTWIRQPPGKGLEWIGYIFYNGDTNYNPSLKSRVTMSIDTSKNEFSLRLTSVTAADTAVYFCARGTEDLGYCSSGSCPNHWGQGTLVTVSS
VL: DIQMTQSPSSLSASIGDRVTITCRPSQNIRSFLNWFQHKPGKAPKLLIYAASNLQSGVPSRFSGSGSGTEFTLTIRSLQPEDFATYYCQQSYNTPPTFGQGTKVEIK
EC50 [2]: 0.013 µg/mL
EC50 [3]: 7 ng/mL

B3: rFluA-20 (recombinant FluA-20 IgG) (antibody, V domains shown)
VH: QVQLQESGPGLVKPSETLSLTCSVSGVSVTSDIYYWTWIRQPPGKGLEWIGYIFYNGDTNYNPSLKSRVTMSIDTSKNEFSLRLTSVTAADTAVYFCARGTEDLGYCSSGSCPNHWGQGTLVTVSS
VL: DIQMTQSPSSLSASIGDRVTITCRPSQNIRSFLNWFQHKPGKAPKLLIYAASNLQSGVPSRFSGSGSGTEFTLTIRSLQPEDFATYYCQQSYNTPPTFGQGTKVEIK
EC50 [2]: 0.018 µg/mL
EC50 [3]: 7 ng/mL

B4: UCA (antibody, V domains shown)
VH: QVQLQESGPGLVKPSETLSLTCTVSGGSVSSGSYYWSWIRQPPGKGLEWIGYIYYSGSTNYNPSLKSRVTISVDTSKNQFSLKLSSVTAADTAVYYCARGTEDLGYCSGGSCPNHWGQGTLVTV
VL: not shown
EC50 [2]: 0.025 µg/mL
EC50 [4]: 0.14 µg/mL
EC50 [3]: 13 ng/mL
EC50 [5]: 0.051 µg/mL

B5: H5.28 (antibody, V domains shown)
VH: EVQLVESGGGLVQPGGSLRLSCAASGFTFSTYWMTWVRQAPGKGLEWVANINQDGGEKYFVDSVKGRFTISRDNAKNSLFLQMNTLRAEDTAVYYCARGFLERLLLGRQGAYYYGMDVWGQGTTVTVSS
VL: DIQMTQSPSSLSASVGDRVSMTCRASQIISSSLNWYQQKPGKAPKLLIYAASNLQSGVPSRFSGSGSGTDFTLTISSLQPEDFATYYCQQSYSTPPELTFGGGTKVEIK
EC50 [1]: 0.074 µg/mL

B6: rFluA-20 heavy chain mutant Y34A (antibody, V domains shown)
VH: QVQLQESGPGLVKPSETLSLTCSVSGVSVTSDIAYWTWIRQPPGKGLEWIGYIFYNGDTNYNPSLKSRVTMSIDTSKNEFSLRLTSVTAADTAVYFCARGTEDLGYCSSGSCPNHWGQGTLVTVSS
VL: DIQMTQSPSSLSASIGDRVTITCRPSQNIRSFLNWFQHKPGKAPKLLIYAASNLQSGVPSRFSGSGSGTEFTLTIRSLQPEDFATYYCQQSYNTPPTFGQGTKVEIK
EC50 [6]: 0.11 µg/mL
EC50 [7]: 0.07 µg/mL

B7: rFluA-20 heavy chain mutant T96A (antibody, V domains shown)
VH: QVQLQESGPGLVKPSETLSLTCSVSGVSVTSDIYYWTWIRQPPGKGLEWIGYIFYNGDTNYNPSLKSRVTMSIDTSKNEFSLRLTSVTAADTAVYFCARGAEDLGYCSSGSCPNHWGQGTLVTVSS
VL: DIQMTQSPSSLSASIGDRVTITCRPSQNIRSFLNWFQHKPGKAPKLLIYAASNLQSGVPSRFSGSGSGTEFTLTIRSLQPEDFATYYCQQSYNTPPTFGQGTKVEIK
EC50 [6]: 0.07 µg/mL
EC50 [7]: 0.1 µg/mL

B8: rFluA-20 heavy chain mutant E97A (antibody, V domains shown)
VH: QVQLQESGPGLVKPSETLSLTCSVSGVSVTSDIYYWTWIRQPPGKGLEWIGYIFYNGDTNYNPSLKSRVTMSIDTSKNEFSLRLTSVTAADTAVYFCARGTADLGYCSSGSCPNHWGQGTLVTVSS
VL: DIQMTQSPSSLSASIGDRVTITCRPSQNIRSFLNWFQHKPGKAPKLLIYAASNLQSGVPSRFSGSGSGTEFTLTIRSLQPEDFATYYCQQSYNTPPTFGQGTKVEIK
EC50 [6]: 0.13 µg/mL
EC50 [7]: 0.07 µg/mL

B9: rFluA-20 heavy chain mutant Y100aA (antibody, V domains shown)
VH: QVQLQESGPGLVKPSETLSLTCSVSGVSVTSDIYYWTWIRQPPGKGLEWIGYIFYNGDTNYNPSLKSRVTMSIDTSKNEFSLRLTSVTAADTAVYFCARGTEDLGACSSGSCPNHWGQGTLVTVSS
VL: DIQMTQSPSSLSASIGDRVTITCRPSQNIRSFLNWFQHKPGKAPKLLIYAASNLQSGVPSRFSGSGSGTEFTLTIRSLQPEDFATYYCQQSYNTPPTFGQGTKVEIK
EC50 fold over wild-type rFluA-20 [6]: > 100 fold
EC50 [7]: 0.07 µg/mL

B10: rFluA-20 light chain mutant N53A (antibody, V domains shown)
VH: QVQLQESGPGLVKPSETLSLTCSVSGVSVTSDIYYWTWIRQPPGKGLEWIGYIFYNGDTNYNPSLKSRVTMSIDTSKNEFSLRLTSVTAADTAVYFCARGTEDLGYCSSGSCPNHWGQGTLVTVSS
VL: DIQMTQSPSSLSASIGDRVTITCRPSQNIRSFLNWFQHKPGKAPKLLIYAASALQSGVPSRFSGSGSGTEFTLTIRSLQPEDFATYYCQQSYNTPPTFGQGTKVEIK
EC50 [6]: 0.16 µg/mL
EC50 [7]: 0.06 µg/mL

B11: FluA-20 UCA Fab (unmutated common ancestor of FluA-20) (Fab, V domains shown)
VH: QVQLQESGPGLVKPSETLSLTCTVSGGSVSSGSYYWSWIRQPPGKGLEWIGYIYYSGSTNYNPSLKSRVTISVDTSKNQFSLKLSSVTAADTAVYYCARGTEDLGYCSGGSCPNHWGQGTLVTV
VL: not shown
Kd [8]: 1430 nM
Kd [9]: 1430 nM
